The test system of experiment [1] is SGK1 expression in naïve CD4+ T cells. In words: SGK1 mRNA expression during T cell / TH17 differentiation. The experiment is classed as cell-based. The procedure: Naïve CD4+ T cells were cultured in TH17 differentiating condition (TGF-β plus IL-6) for 96 hours.
The correlation between the SGK1 expression level during T cell differentiation was previously unknown, so SGK1 mRNA level was first measured under different conditions during T cell differentiation (FIG. 1). […] IL-23, an IL-12 family cytokine, is essential for enhancing generation of TH17 cells.
The time dependent expression of SGK1 during TH17 differentiation was further examined by culturing naïve CD4+ T cells under TH17 differentiating conditions (TGF-β plus IL-6) for 96 hours. After 48 hours, TH17 cells were supplemented with IL-23 until the end of the culture period.

The next experiment deals with TH17 cells. The experiment can be described thus: IL-23 dependent expansion of differentiated TH17 cells, intracellular cytokine staining for IL-17. The experiment is classed as cell-based, mice. The procedure:
Naïve CD4+ T cells were sorted from wild-type and SGK1-deficient mice and cultured under TH17 differentiation conditions. After a first round of stimulation, the cells were rested for two days in cytokine free medium. Two days later, cells were activated in the presence or absence of IL-23, and intracellular cytokine staining was performed for IL-17.
(§1) It has been shown that exposure of IL-23 is essential for expanding and stabilizing TH17 cells. […] It was next tested whether SGK1 is essential for IL-23-dependent expansion of TH17 cells. Naïve CD4+ T cells were sorted from wild-type and SGK1-deficient mice and were cultured under TH17 differentiation conditions, as described herein. After a first round of stimulation, cells were rested for two days in a cytokine-free medium. Two days later, cells were activated in the presence or absence of IL-23, and intracellular cytokine staining was performed for IL-17 expression. […] It was further tested whether IL-23 can expand sorted memory TH17 cells. Both wild-type and SGK1-deficient CD4^+CD62L^− cells were sorted and cultured with either anti-CD3 alone or anti-CD3 plus IL-23.

Experiment [2] relates to CD4+CD62L- cells (memory CD4 cells). In words: IL-17A and IL-17F expression in sorted memory CD4+CD62L- cells. The experiment is classed as cell-based, mice. Particulars: anti-CD3 plus IL-23 vs anti-CD3 alone (FIG. 5). The procedure:
Wild-type and SGK1-deficient CD4+CD62L-cells (memory CD4 cells) were sorted and cultured with either anti-CD3 alone or anti-CD3 plus IL-23.
as §1

Take “IL-6: STAT3-activating cytokine used with TGF-β for TH17 differentiation”: in experiment [1] (IL-6 added together with TGF-β (FIG. 1)), the “expression of SGK1 (mRNA)” value is given as “further increased the expression SGK1”.
In the case of TGF-β, the “expression level of SGK1 (mRNA)” value in experiment [1] (T cell differentiation, TGF-β (FIG. 1)) is “upregulate the expression level of SGK1”.

B1: IL-23: an IL-12 family cytokine, essential for enhancing generation of TH17 cells (protein, UniProt Q9NPF7 20-189; P29460 23-328, looked up)
Interleukin-23 subunit alpha: RAVPGGSSPAWTQCQQLSQKLCTLAWSAHPLVGHMDLREEGDEETTNDVPHIQCGDGCDPQGLRDNSQFCLQRIHQGLIFYEKLLGSDIFTGEPSLLPDSPVGQLHASLLGLSQLLQPEGHHWETQQIPSLSPSQPWQRLLLRFKILRSLQAFVAVAARVFAHGAATLSP
Interleukin-12 subunit beta: IWELKKDVYVVELDWYPDAPGEMVVLTCDTPEEDGITWTLDQSSEVLGSGKTLTIQVKEFGDAGQYTCHKGGEVLSHSLLLLHKKEDGIWSTDILKDQKEPKNKTFLRCEAKNYSGRFTCWWLTTISTDLTFSVKSSRGSSDPQGVTCGAATLSAERVRGDNKEYEYSVECQEDSACPAAEESLPIEVMVDAVHKLKYENYTSSFFIRDIIKPDPPKNLQLKPLKNSRQVEVSWEYPDTWSTPHSYFSLTFCVQVQGKSKREKKDRVFTDKTSATVICRKNASISVRAQDRYYSSSWSEWASVPCS
For B1, the “IL-17 expressing TH17 cells after re-activation with IL-23” value with TH17 cells (SGK1-deficient TH17 cells, ~4% in absence of IL-23) is given as approximately 1%; with TH17 cells (wild-type TH17 cells, 11.5% in absence of IL-23) it was 13%. Besides, the “expression of IL-17A and IL-17F” value is “defective in inducing expression of IL-17A and IL-17F” in experiment [2] (SGK1-deficient memory cells); “clearly enhanced the expression of IL-17A and IL-17F” in experiment [2] (wild-type memory cells). Also, the “expression of SGK1 (mRNA)” value in experiment [1] (IL-23, further to TGF-β and IL-6 (FIG. 1)) is reported as “further enhances the expression of SGK1”. In experiment [1] (TH17 cells supplemented with IL-23 after 48 hours (FIG. 2)), the “time dependent expression of SGK1” value is “further induced SGK1 expression”.
